{"source": "the DeepSol protein solubility set", "data": [{"experiment": "soluble on expression in E. coli; label from the status in PepcDB or PDB records", "values": [{"sequence": "MLIRRKIMQYNDMSKEELLVLKESLNKEYAEAKAKGLALDMSRGKPSAKQLDVSLGLLDTINSSSDLKSLDGTDCRNYGVLDGIPEAKKLMADMMGTTPDHVIVYGNASLNIMYDQISRAYTHGILGNTPWCKLDKVKFLCPVPGYDRHFAITERFGIEMINIPMSESGPDMGMVEEYVSKDASVKGIWCVPKYSNPQGYTYSEETVKRMAALKPAAEDFRIFWDNAYVIHDLYDDNKDEIADIISECEKAGNPDMVFEFASTSKVSFPGSGIAALATSANNIADIKKQLTIQTIGHDKLNQLRHVRFFKDINGLKEHMRKHAEFIRPKFEAVESVLEEELSGLGIGSWTEPKGGYFISFDAMDGCAKAIVAKCKEAGVKLTGAGATFPYGKDPKDSNIRIAPSFPTPEEMKQAADLFVLCVKLVSVEKLLENK", "soluble on expression in E. coli": "not soluble"}, {"sequence": "MANANPFARIADRYDGTPPRLRPPLVTQAVGEVIPFVDTAGCFVEAYTPRRVAVRLDNEERLHNHLGGLHAAALALLAETATGLVVALNVPDGSSPLLRTMDISFENFARDAVQAEATLTDAETSQVRSRPLGQIAVDVALTAPDDDTTLVAGTLTWAWVPEARLVDEGERLEHHHHHH", "soluble on expression in E. coli": "not soluble"}, {"sequence": "MSLKYDVVVIGAGGAGYHGAFRLAKAKYNVLMADPKGELGGNCLYSGCVPSKTVREVIQTAWRLTNIANVKIPLDFSTVQDRKDYVQELRFKQHKRNMSQYETLTFYKGYVKIKDPTHVIVKTDEGKEIEAETRYMIIASGAETAKLRLPGVEYCLTSDDIFGYKTSFRKLPQDMVIIGAGYIGLEIASIFRLMGVQTHIIEMLDRALITLEDQDIVNTLLSILKLNIKFNSPVTEVKKIKDDEYEVIYSTKDGSKKSIFTNSVVLAAGRRPVIPEGAREIGLSISKTGIVVDETMKTNIPNVFATGDANGLAPYYHAAVRMSIAAANNIMANGMPVDYVDVKSIPVTIYTIPSLSYVGILPSKARKMGIEIVEAEYNMEEDVSAQIYGQKEGVLKLIFERGSMRLIGAWMIGVHSQYLINELGLAVAYGLNAKQLASFAEQHPSTNEIISYTARKVIEGHHHHHH", "soluble on expression in E. coli": "soluble"}, {"sequence": "MSLIMITAEMVPPDLLIKRLAIYLKENVKTVDPPEWALLAKTASFKERVPDNAEDWWYIRAASLLRKLYVNSIIGIEKTRTIYGGRKRRGTRPEKFVKAPGHVNRLIFQQLEKAGLVQKIKNKGRSLSPKGRSLLDKLALEIFKELAENNTSLKVYLELEHHHHHH", "soluble on expression in E. coli": "soluble"}, {"sequence": "MSQLFVRTGIHFSSSQQALEHIGAEMLARGVVHDSYPAALLEREATFPTGIALEKHAVAIPHCEAIHAKSPAIYLIRPDMPVSFQRADDDGEIDVSLIIALIVENPAAQLKLLRRLFSELQNPHTLEALLAASDDRLPVRFQQLILEPELSAVAS", "soluble on expression in E. coli": "not soluble"}, {"sequence": "MGHHHHHHSHMDFSHWPHVLPLEPGGCIDFQTENSSRHCLVTYRPDKNHTTIRSVLMEMSYRLDDTGNPICSCQPVHTFFGGPTCKLLTKNAIFQSPENDGNILVCTGDEAANSALLWDAASGSLLQDLRTDQPVLDICPFEVNRNSYLATLTEKMVHIYKWE", "soluble on expression in E. coli": "not soluble"}, {"sequence": "MGIMELARIDLSRDDLDKRIGGGIPHGSLIIIEGEESTGKSVLCQRLAYGFLQNRYSVTYVSTQLTTLEFIKQMNSLNYSINKKLLSGALLYIPVYPLIADNKKKDGFLKKVMETRAFYEKDVIIFDSISALIANDASEVNVDDLMAFFKRITALKKIIICTVNPKELPESVLTIIRTSATMLIRTELFTFGGDLKNLAKILKYNMAPGSYQKNIVFRVEPKIGIAVEIASVALEHHHHHH", "soluble on expression in E. coli": "soluble"}, {"sequence": "MGSDKIHHHHHHMSVKILFKNATVFPITSRPFKGDVLVSNGKVEKVGENIEDPDAEIVDLTGKFLFPGFVDAHSHIGLFEEGVGYYYSDGNEATDPVTPHVKALDGFNPQDPAIERALAGGVTSVMIVPGSANPVGGQGSVIKFRSIIVEECIVKDPAGLKMAFGENPKRVYGERKQTPSTRMGTAGVIRDYFTKVKNYMKKKELAQKEGKEFTETDLKMEVGEMVLRKKIPARMHAHRADDILTAIRIAEEFGFNLVIEHGTEAYKISKVLAEKKIPVVVGPLLTFRTKLELKDLTMETIAKLLKDGVLIALMCDHPVIPLEFATVQAATAMRYGAKEEDLLKILTVNPAKILGLEDRIGSIEPGKDADLVVWSGHPFDMKSVVERVYIDGVEVFRR", "soluble on expression in E. coli": "not soluble"}, {"sequence": "MIRTIERIITSTGFSLQHSDNGEITGLFYHCKLSSAYQPVFEAARNNIIGQEARIRADLNGNGEIQLSPWHIFALAPDDEQLIKLDRLCRTIHALNFLDNITNKQMKLFVSVQPRLLESVKDDHGSAFEQILDIIGIRTSRIVIEIPVEANRDWRLLKRVIMNYRAHGYLISVNYSGTNNDRISELGKLYPNVIRIDARDLLRRSVLDPLIVTAHNQGADVLVGNIETSYQLTDAIHAGADLLQGNFLARYSRKADNMLTPFSWQIPDERNGYRFDNESLQENQPYRSI", "soluble on expression in E. coli": "not soluble"}, {"sequence": "MKILAFETSTEACSVALHVDGAVRERFELAPRRHAELALPWAEQLLAEAGISRRQLDAIAVGRGPGAFSGVRLAIGIVQGIALALDLPVLAISTLQVLALRAPAEASHVLACIDARMGEVYAGLFERQGEALLTLGSEVVCAPEAVLLPQSTPQWAGVGTGLAAGEMPLQQRFAGRLSSVDAAALPHAADLLTLALPAALRGEGVAPERVEPAYLRDNVALTLVEQQAARAAKAAAVPRLEHHHHHH", "soluble on expression in E. coli": "not soluble"}, {"sequence": "MNLHICEVTAKNWRSVVALDVAKDQQQFIESNAFSLAESLYEGNGTSVGLYDSETLVGYAMYGWYSVKHKSVWLDRFMIDQQYQGKGYAKRFLRLLIQFLQEKFECKIIYLSLHPDNKLAMGLYESFGFRLNGDIDDEGPVVGVVMELLIDENTSL", "soluble on expression in E. coli": "not soluble"}, {"sequence": "MGMTIVEKILAKASGKKEVSPGDIVMANIDVAMVHDITGPLTVNTLKEYGIEKVWNPEKIVILFDHQVPADSIKAAENHILMRKFVKEQGIKYFYDIREGVCHQVLPEKGHVAPGEVVVGADSHTCTHGAFGAFATGIGSTDMAHVFATGKLWFKVPET", "soluble on expression in E. coli": "not soluble"}, {"sequence": "SDLPRHIAVLCDGNRRWARSAGYDDVSYGYRMGAAKIAEMLRWCHEAGIELATVYLLSTENLQRDPDELAALIEIITDVVEEICAPANHWSVRTVGDLGLIGEEPARRLRGAVESTPEVASFHVNVAVGYGGRREIVDAVRALLSKELANGATAEELVDAVTVEGISENLYTSGQPDPDLVIRTSGEQRLSGFLLWQSAYSEMWFTEAHWPAFRHVDFLRALRDYSAR", "soluble on expression in E. coli": "soluble"}, {"sequence": "MGSSHHHHHHGSLSKQIPLGIYEKALPAGECWLERLQLAKTLGFDFVEMSVDETDERLSRLDWSREQRLALVNAIVETGVRVPSMCLSAHRRFPLGSEDDAVRAQGLEIMRKAIQFAQDVGIRVIQLAGYDVYYQEANNETRRRFRDGLKESVEMASRAQVTLAMEIMDYPLMNSISKALGYAHYLNNPWFQLYPDIGNLSAWDNDVQMELQAGIGHIVAVHVKDTKPGVFKNVPFGEGVVDFERCFETLKQSGYCGPYLIEMWSETAEDPAAEVAKARDWVKARMAKAGMVEAA", "soluble on expression in E. coli": "soluble"}, {"sequence": "MSLGRLVLNTKEELANERLMTLKIAEMKEAMRTLIFPPSMHFFQAKHLIERSQVFNILRMMPKGAALHLHDIGIVTMDWLVRNVTYRPHCHICFTPRGIMQFRFAHPTPRPSEKCSKWILLEDYRKRVQNVTEFDDSLLRNFTLVTQHPEVIYTNQNVVWSKFETIFFTISGLIHYAPVFRDYVFRSMQEFYEDNVLYMEIRARLLPVYELSGEHHDEEWSVKTYQEVAQKFVETHPEFIGIKIIYSDHRSKDVAVIAESIRMAMGLRIKFPTVVAGFDLVGHEDTGHSLHDYKEALMIPAKDGVKLPYFFHAGETDWQGTSIDRNILDALMLNTTRIGHGFALSKHPAVRTYSWKKDIPIEVCPISNQVLKLVSDLRNHPVATLMATGHPMVISSDDPAMFGAKGLSYDFYEVFMGIGGMKADLRTLKQLAMNSIKYSTLLESEKNTFMEIWKKRWDKFIADVATKEGHHHHHH", "soluble on expression in E. coli": "not soluble"}, {"sequence": "MADGPDKKRRKLTSALKDAIGAHSQKPEENIEKPIALALISDNKAAQDLLNKIQASRRPQAILEATLKICKEKKSEAHVDEAFLSIFRKHFSILGVDSALACWKLIEEHLNSSESINEIRIANEFISTSNLLGHGFGKLLQNMKQGIPVVIQNTWRQERKADALALAYPFLSLLLADQVYGDHQNLESLAEFWKNQVLPEKSMKKDFGMRMVSALAGGEPGQLPETKIDENQLEMLSKIYENHLEFYTGILSESTCSQLLAKVIEDNLAKNELKQLARRCQTAEVCMSPCIYYAMISVLRSTFDLNDSELIFIENLKTLKLKEITKHLPSIINSCSNTRQITASKKLKNLENLQDFLHNVTEKPENDNFSAAFALLSINISLIFDNWNFCEKILKTLPKDVLEKLIKAGKGSENENILKVFKKVAQEAAPVKFVNRTAADVAEKLREPEFAVAEALSLLQGVHTAETKKEVFDSVVKFVEEIPGAESIDEMKLFKLIIEMYGGSQLESLAVQVVFSRIAADGWTEMDRAPGTEKSDESWFTVLVETIDLLDIAMKSAKNSVLKSFTALFCQLFSQVLKNSQKFVRNSLNAVASRTLSPEMETEFVLRRHKLSQDLARLVDAMKRNESYFAMLTASIIGDAVFYGSDSLLAMSKLHSLADKNASALLATNLPVVERTRYKKFLSTITRASKRIY", "soluble on expression in E. coli": "not soluble"}, {"sequence": "MQIDFNSDMGESFGAWTIGDGVDTELMAFISSANIATGFHAGDPSTMRRTIEQAKRLGVAIGAHPGFRDLVGFGRRHINAPAQELVDDMLYQLGALRELARVQGVPLQHFKPHGALYMHLARDEEAARLLVENLQRLEPDLLLYCMPGSVICNVAQELGQPVVREFYADRAYDLSGSIVFTRNVRAHDPAEVAARVIRACQQGLVRTVEGDDLAIQFDSICLHSDTPGALALAQATRQALDGAGIEVRTPRLEHHHHHH", "soluble on expression in E. coli": "not soluble"}, {"sequence": "MKKWEKQTMKIAALGAMALTLAGCATAKSSSSQGNNPGKTIKIGVNMELSGSAAGYGEQQKQGIQLAVKKINKSGGIKVGGTKKKIQLVIRDNKTSNTTAASVAAQLVNNDKVVAVVGPATTSAGTAAIPNMTKAAVPSVSPSATDPDYTLQKSGKVQKYIFRACYQNNFQGATAATFVTKNLKAKRVAILTDNSSDYGTGLTKAFKKQYRGTVVSSQTFQEGDKDFNAILTALKHKKIDAIYAPGYYSEIGLIVKQARQAGIKAPIVGSDGMADAKLAQIAGKSNATNVYYTTPFSTKASATNKVASKFMSAYKAKYGSTAPTFSALAYDSVYMIKAAIEKEGSANSVKIADGLAKLKNFKGVTGTMTIDKQHNPEKTISIEQLTNGVVSKVYNVK", "soluble on expression in E. coli": "soluble"}, {"sequence": "MTRTVSMSTAINEAMKISMRRDENVILIGEDVAGGAQVDHLQDDEAWGGVLGVTKGLVQEFGRNRILDTPISEAGYMGAAMAAAATGLRPIAELMFNDFIGSCLDQVLNQGAKFRYMFGGKAKVPVTVRTMHGAGFSAAAQHSQSLYALFTSIPGIKVVVPSTPYDAKGLLLAAIEDDDPVIFFEDKTLYNMKGEVPEGYYTIPLGKADIKREGSDVTIVAIGKQVHTALAAAEQLAKKGLEVEVIDPRSLSPLDEDTILSSVEKTNRLIVIDEANPRCSIATDIAAIVADRGFDLLDAPIKRITAPHTPVPFSPPLEKLYLPTPEKVIETVSEMIGDQSLLHV", "soluble on expression in E. coli": "not soluble"}]}]}
